{"source": "the supplement of paper PMC7877785", "assay": "self-splicing fitness, log relative to wild type (ln ratio); higher = more splicing; Tetrahymena group I intron in knt gene, E. coli kanamycin selection, DiMSum; sequences stand for … in CUCUCU…GGAGGGAAAAGUUAUCAGGCAUGCACCUGGUAGCUAGUCUUUAAACCAAUAGAUUGCAUCGGUUUAAAAGGCAAGACCGUCAAAUUGCGGGAAAGGGGUCAACAGCCGUUCAGUACCAAGUCUCAGGGGAAACUUUGAGAUGGCCUUGCAAAGGGUAUGGUAAUAAGCUGACGGACAUGGUCCUAACCACGCAGCCAAGUCCUAAGUCAACAGAUCUUCUGUUGAUAUGGAUGCAGUUCACAGACUAAAUGUCGGUCGGGGAAGAUGUAUUCUUCUCAUAAGAUAUAGUCGGACCUCUCCUUAAUGGGAGCUAGCGGAUGAAGUGAUGCAACACUGGAGCCGCUGGGAACUAAUUUGUAUGCGAAAGUAUAUUGAUUAGUUUUGGAGUACUCGUGGUCG", "in_short": "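Fitness was computed with DiMSum as the error-weighted combination of replicate fold changes, kanamycin versus none, each normalised to wild type. The library randomised all eight intron nucleotides of the P1ex region, with the intron placed in the knt kanamycin-resistance gene on pET-22b(+) in E. coli BL21(DE3). Six replicate transformations were grown overnight at 37°C or 30°C on LB agar with or without 25 μg/mL kanamycin, plus 100 μg/mL carbenicillin, 50 μM IPTG and 0.2% rhamnose. Pooled colonies were amplicon-sequenced on an Illumina HiSeq 2500.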", "note": "± gives the uncertainty stated by the source.", "data": [{"sequence": "GGUUAGCAAUAUUACGAAAA", "values": [{"measurement": "self-splicing fitness (ln)", "setting": "30 °C", "value": "-2.05 ± 0.41"}, {"measurement": "self-splicing fitness (ln)", "setting": "37 °C", "value": "0.949 ± 0.28"}]}, {"sequence": "UCGAAGCAAUAUUACGUGAU", "values": [{"measurement": "self-splicing fitness (ln)", "setting": "30 °C", "value": "-2.71 ± 0.16"}, {"measurement": "self-splicing fitness (ln)", "setting": "37 °C", "value": "-1.37 ± 0.17"}]}, {"sequence": "GAUCAGCAAUAUUACGGAGC", "values": [{"measurement": "self-splicing fitness (ln)", "setting": "30 °C", "value": "-1.86 ± 0.094"}, {"measurement": "self-splicing fitness (ln)", "setting": "37 °C", "value": "-0.552 ± 0.099"}]}, {"sequence": "CAAUAGCAAUAUUACGUGCA", "values": [{"measurement": "self-splicing fitness (ln)", "setting": "30 °C", "value": "-2.72 ± 0.19"}, {"measurement": "self-splicing fitness (ln)", "setting": "37 °C", "value": "-1.27 ± 0.15"}]}, {"sequence": "UGAUAGCAAUAUUACGAAGC", "values": [{"measurement": "self-splicing fitness (ln)", "setting": "30 °C", "value": "-3.24 ± 0.32"}]}, {"sequence": "ACCCAGCAAUAUUACGGUUG", "values": [{"measurement": "self-splicing fitness (ln)", "setting": "30 °C", "value": "-3.66 ± 0.18"}, {"measurement": "self-splicing fitness (ln)", "setting": "37 °C", "value": "-2.3 ± 0.19"}]}, {"sequence": "GCUAAGCAAUAUUACGGCCU", "values": [{"measurement": "self-splicing fitness (ln)", "setting": "30 °C", "value": "-1.89 ± 0.095"}, {"measurement": "self-splicing fitness (ln)", "setting": "37 °C", "value": "-0.893 ± 0.11"}]}, {"sequence": "AGCCAGCAAUAUUACGCUCC", "values": [{"measurement": "self-splicing fitness (ln)", "setting": "30 °C", "value": "-2.35 ± 0.16"}, {"measurement": "self-splicing fitness (ln)", "setting": "37 °C", "value": "-2.51 ± 0.21"}]}, {"sequence": "AGCAAGCAAUAUUACGCUGA", "values": [{"measurement": "self-splicing fitness (ln)", "setting": "30 °C", "value": "-2.22 ± 0.14"}, {"measurement": "self-splicing fitness (ln)", "setting": "37 °C", "value": "-2.07 ± 0.17"}]}, {"sequence": "ACAAAGCAAUAUUACGAAUA", "values": [{"measurement": "self-splicing fitness (ln)", "setting": "30 °C", "value": "-3.62 ± 0.29"}, {"measurement": "self-splicing fitness (ln)", "setting": "37 °C", "value": "-1.95 ± 0.17"}]}, {"sequence": "UUACAGCAAUAUUACGCUAU", "values": [{"measurement": "self-splicing fitness (ln)", "setting": "30 °C", "value": "-3.74 ± 0.25"}, {"measurement": "self-splicing fitness (ln)", "setting": "37 °C", "value": "-2.33 ± 0.21"}]}, {"sequence": "GCUAAGCAAUAUUACGCGAA", "values": [{"measurement": "self-splicing fitness (ln)", "setting": "30 °C", "value": "-2.87 ± 0.13"}, {"measurement": "self-splicing fitness (ln)", "setting": "37 °C", "value": "-1.1 ± 0.14"}]}, {"sequence": "UGUCAGCAAUAUUACGCUUG", "values": [{"measurement": "self-splicing fitness (ln)", "setting": "30 °C", "value": "-1.09 ± 0.066"}, {"measurement": "self-splicing fitness (ln)", "setting": "37 °C", "value": "-0.432 ± 0.089"}]}, {"sequence": "UGCCAGCAAUAUUACGGCAG", "values": [{"measurement": "self-splicing fitness (ln)", "setting": "30 °C", "value": "-2.25 ± 0.093"}, {"measurement": "self-splicing fitness (ln)", "setting": "37 °C", "value": "-1.15 ± 0.1"}]}, {"sequence": "CGAAAGCAAUAUUACGCUAC", "values": [{"measurement": "self-splicing fitness (ln)", "setting": "30 °C", "value": "-2.53 ± 0.3"}]}, {"sequence": "UAUCAGCAAUAUUACGGAGU", "values": [{"measurement": "self-splicing fitness (ln)", "setting": "30 °C", "value": "-2.09 ± 0.068"}, {"measurement": "self-splicing fitness (ln)", "setting": "37 °C", "value": "-0.974 ± 0.09"}]}, {"sequence": "UCUUAGCAAUAUUACGCCGG", "values": [{"measurement": "self-splicing fitness (ln)", "setting": "30 °C", "value": "-1.85 ± 0.26"}, {"measurement": "self-splicing fitness (ln)", "setting": "37 °C", "value": "0.459 ± 0.31"}]}, {"sequence": "ACUCAGCAAUAUUACGCAAU", "values": [{"measurement": "self-splicing fitness (ln)", "setting": "30 °C", "value": "-1.37 ± 0.078"}, {"measurement": "self-splicing fitness (ln)", "setting": "37 °C", "value": "-0.643 ± 0.093"}]}, {"sequence": "AAAUAGCAAUAUUACGCAGU", "values": [{"measurement": "self-splicing fitness (ln)", "setting": "30 °C", "value": "-3.79 ± 0.2"}, {"measurement": "self-splicing fitness (ln)", "setting": "37 °C", "value": "-1.57 ± 0.14"}]}, {"sequence": "CGCCAGCAAUAUUACGUUUG", "values": [{"measurement": "self-splicing fitness (ln)", "setting": "30 °C", "value": "-1.17 ± 0.049"}, {"measurement": "self-splicing fitness (ln)", "setting": "37 °C", "value": "-0.629 ± 0.072"}]}, {"sequence": "UGCUAGCAAUAUUACGAUCC", "values": [{"measurement": "self-splicing fitness (ln)", "setting": "30 °C", "value": "-0.317 ± 0.41"}]}, {"sequence": "UAGGAGCAAUAUUACGGAAC", "values": [{"measurement": "self-splicing fitness (ln)", "setting": "37 °C", "value": "-0.574 ± 0.4"}]}, {"sequence": "AUAUAGCAAUAUUACGAGAU", "values": [{"measurement": "self-splicing fitness (ln)", "setting": "30 °C", "value": "-3.01 ± 0.14"}, {"measurement": "self-splicing fitness (ln)", "setting": "37 °C", "value": "-0.91 ± 0.13"}]}, {"sequence": "CCCCAGCAAUAUUACGUCAU", "values": [{"measurement": "self-splicing fitness (ln)", "setting": "30 °C", "value": "-3.36 ± 0.1"}, {"measurement": "self-splicing fitness (ln)", "setting": "37 °C", "value": "-3.02 ± 0.15"}]}, {"sequence": "CACUAGCAAUAUUACGAAGA", "values": [{"measurement": "self-splicing fitness (ln)", "setting": "30 °C", "value": "-3.05 ± 0.24"}, {"measurement": "self-splicing fitness (ln)", "setting": "37 °C", "value": "-2.27 ± 0.2"}]}, {"sequence": "CUACAGCAAUAUUACGGUCU", "values": [{"measurement": "self-splicing fitness (ln)", "setting": "30 °C", "value": "-4.27 ± 0.19"}, {"measurement": "self-splicing fitness (ln)", "setting": "37 °C", "value": "-2.13 ± 0.16"}]}, {"sequence": "GAUGAGCAAUAUUACGUCUA", "values": [{"measurement": "self-splicing fitness (ln)", "setting": "30 °C", "value": "-1.51 ± 0.31"}, {"measurement": "self-splicing fitness (ln)", "setting": "37 °C", "value": "-1.2 ± 0.25"}]}, {"sequence": "CAUGAGCAAUAUUACGAAUA", "values": [{"measurement": "self-splicing fitness (ln)", "setting": "30 °C", "value": "-1.59 ± 0.18"}, {"measurement": "self-splicing fitness (ln)", "setting": "37 °C", "value": "-2.72 ± 0.4"}]}, {"sequence": "AUAGAGCAAUAUUACGUUCG", "values": [{"measurement": "self-splicing fitness (ln)", "setting": "30 °C", "value": "-0.386 ± 0.077"}, {"measurement": "self-splicing fitness (ln)", "setting": "37 °C", "value": "-0.257 ± 0.092"}]}, {"sequence": "CUACAGCAAUAUUACGUCAU", "values": [{"measurement": "self-splicing fitness (ln)", "setting": "30 °C", "value": "-4.33 ± 0.22"}, {"measurement": "self-splicing fitness (ln)", "setting": "37 °C", "value": "-3.72 ± 0.19"}]}, {"sequence": "GCACAGCAAUAUUACGCCGG", "values": [{"measurement": "self-splicing fitness (ln)", "setting": "30 °C", "value": "-1.25 ± 0.1"}, {"measurement": "self-splicing fitness (ln)", "setting": "37 °C", "value": "-0.896 ± 0.16"}]}, {"sequence": "CCCAAGCAAUAUUACGCGAA", "values": [{"measurement": "self-splicing fitness (ln)", "setting": "30 °C", "value": "-3.55 ± 0.15"}, {"measurement": "self-splicing fitness (ln)", "setting": "37 °C", "value": "-2.63 ± 0.17"}]}, {"sequence": "UAUAAGCAAUAUUACGAUCG", "values": [{"measurement": "self-splicing fitness (ln)", "setting": "30 °C", "value": "-0.0932 ± 0.12"}, {"measurement": "self-splicing fitness (ln)", "setting": "37 °C", "value": "-0.23 ± 0.13"}]}, {"sequence": "AACAAGCAAUAUUACGAGCG", "values": [{"measurement": "self-splicing fitness (ln)", "setting": "30 °C", "value": "-0.912 ± 0.057"}, {"measurement": "self-splicing fitness (ln)", "setting": "37 °C", "value": "0.125 ± 0.078"}]}, {"sequence": "GGUCAGCAAUAUUACGGACU", "values": [{"measurement": "self-splicing fitness (ln)", "setting": "30 °C", "value": "-1.49 ± 0.44"}]}, {"sequence": "CGAUAGCAAUAUUACGACGC", "values": [{"measurement": "self-splicing fitness (ln)", "setting": "30 °C", "value": "-2.34 ± 0.39"}, {"measurement": "self-splicing fitness (ln)", "setting": "37 °C", "value": "0.00994 ± 0.27"}]}, {"sequence": "CUGAAGCAAUAUUACGGUAA", "values": [{"measurement": "self-splicing fitness (ln)", "setting": "30 °C", "value": "-3.7 ± 0.24"}, {"measurement": "self-splicing fitness (ln)", "setting": "37 °C", "value": "-1.27 ± 0.24"}]}, {"sequence": "ACUCAGCAAUAUUACGCCGG", "values": [{"measurement": "self-splicing fitness (ln)", "setting": "30 °C", "value": "-0.85 ± 0.074"}, {"measurement": "self-splicing fitness (ln)", "setting": "37 °C", "value": "-0.683 ± 0.092"}]}, {"sequence": "ACAGAGCAAUAUUACGGUCG", "values": [{"measurement": "self-splicing fitness (ln)", "setting": "30 °C", "value": "-2.29 ± 0.11"}, {"measurement": "self-splicing fitness (ln)", "setting": "37 °C", "value": "-1.36 ± 0.16"}]}]}
